Results: patent US20060286032A1, “A radiosotope-chitosan complex for treatment of prostate cancer” (priority 2003, published 2006)

What was measured:
[1] = Cumulative urinary and fecal excretion of radioactivity for 72 hrs after injection into the prostate gland; format: in vivo, SD rats; details: for Radioactivity remaining in Carcass / Radioactivity remaining in Prostate gland: 72 hr; for Total recovery rate: 72 hrs
Protocol: After the complex solution was administered to the prostate gland, cumulative urinary and fecal excretions of radioactivity were examined to investigate the amount of excreted ^166Ho. 25 μl of the test drug was administered to the prostate gland of SD rats, which was equal to about 100 μCi. The amount of radioactivity excreted for 72 hrs was measured. The rats were kept in metabolic cages made of a stainless material. Urine and feces were collected, and, 72 hrs after administration, the rats were sacrificed with diethylether. Radioactivity remaining in the carcass and the prostate gland was also measured.

[2] = Radioactive concentrations in collected organs and tissues by liquid scintillation counter after injection into the prostate gland; format: in vivo, SD rats; details: for Administered radioactivity retained in the prostate gland: until 144 hrs after administration
Protocol: After the complex solution was administered, accurate radioactive concentrations were measured in various organs. 25 μl of the complex solution as a test drug were administered to the prostate gland in the abdominal region of SD rats, which was equal to about 100 μCi. After 0.5, 2, 6, 24, 72 and 144 hrs, the rats were anesthetized with diethylether and exsanguinated by incision of abdominal aorta. Various organs and tissues were collected, which included blood, plasma, brain, thymus, heart, lung, liver, kidney, adrenal gland, spleen, pancreas, testes, prostate gland (including an administration site), seminal vesicle, epididymis, bladder, skeletal muscle, bones, bone marrow, skin, carcass, stomach, small intestine, rectum and large intestine. The collected organs and tissues were weighed, sectioned and homogenized. The whole sample or the supernatant was assayed for radioactivity using a liquid scintillation counter. The measured radioactive concentrations in various organs and tissues according to the time are given in Table 3 (% ID/g) and Table 4 (% of dose).

[3] = Whole-body autoradiography after injection of 25 μl or 50 μl complex solution into the prostate gland; format: in vivo, male SD rats
Protocol: After one week acclimation, male SD rats were anesthetized with diethylether, and an about 2-cm midline incision was made in the lower abdomen of the pubis. After the prostate gland was exposed along with the bladder, 25 μl and 50 μl (each about 100 μCi) of the complex solution prepared in Example 2 were individually administered to the prostate gland using a syringe. After the rats were sacrificed 0.5 hr and 6 hrs after administration, cryosections were prepared, and whole-body autoradiography was carried out to measure radioactive concentrations in the liver, spleen, kidney, the end region of the femur, spine and administration sites. The measured radioactive concentrations (% ID/g) in various organs after injection of the complex solution are given in Table 1, below.
Numerals of Table 1 indicate mean+standard deviation (n=3).

Holmium-166 (^166Ho)-Chitosan Complex [complex solution]
Cumulative excretion, Urine ([1]; 0-3 hr, animal 1): 0.03 % of dose | Cumulative excretion, Urine ([1]; 0-3 hr, animal 2): 0.03 % of dose | Cumulative excretion, Urine ([1]; 0-3 hr, animal 3): 0.04 % of dose | Cumulative excretion, Urine ([1]; 0-6 hr, animal 1): 0.04 % of dose | Cumulative excretion, Urine ([1]; 0-6 hr, animal 2): 0.04 % of dose | Cumulative excretion, Urine ([1]; 0-6 hr, animal 3): 0.05 % of dose | Cumulative excretion, Urine ([1]; 0-24 hr, animal 1): 0.11 % of dose | Cumulative excretion, Urine ([1]; 0-24 hr, animal 2): 0.13 % of dose | Cumulative excretion, Urine ([1]; 0-24 hr, animal 3): 0.17 % of dose | Cumulative excretion, Feces ([1]; 0-72 hr, Mean): 0.11 % of dose | Cumulative excretion, Urine ([1]; 0-72 hr, Mean): 0.35 % of dose | Cumulative excretion, Feces ([1]; 0-72 hr, animal 3): 0.11 % of dose | Radioactivity remaining in Carcass ([1]; Mean): 2.67 % of dose | Radioactivity remaining in Prostate gland ([1]; Mean): 99.19 % of dose | Radioactivity remaining in Carcass ([1]; animal 1): 2.32 % of dose | Radioactivity remaining in Prostate gland ([1]; animal 1): 98.84 % of dose | Radioactivity remaining in Carcass ([1]; animal 2): 3.27 % of dose | Radioactivity remaining in Prostate gland ([1]; animal 2): 96.79 % of dose | Radioactivity remaining in Carcass ([1]; animal 3): 2.42 % of dose | Radioactivity remaining in Prostate gland ([1]; animal 3): 101.94 % of dose | Total recovery rate ([1]; Mean): 99.65% | Total recovery rate ([1]; animal 1): 99.23% | Total recovery rate ([1]; animal 2): 97.27% | Total recovery rate ([1]; animal 3): 102.46% | Radioactive concentration, Blood ([2]; 30 min after injection): 26 ± 10 % ID/g ×10^−4 | Radioactive concentration, Bones ([2]; 30 min after injection): 71 ± 55 % ID/g ×10^−4 | Radioactive concentration, Plasma ([2]; 30 min after injection): 44 ± 16 % ID/g ×10^−4 | Radioactive concentration, Blood ([2]; 2 hrs after injection): 19 ± 9 % ID/g ×10^−4 | Radioactive concentration, Bones ([2]; 2 hrs after injection): 189 ± 79 % ID/g ×10^−4 | Radioactive concentration, Plasma ([2]; 2 hrs after injection): 32 ± 11 % ID/g ×10^−4 | Radioactive concentration, Bone marrow ([2]; 6 hrs after injection): 17 % ID/g ×10^−4 | Radioactive concentration, Bones ([2]; 6 hrs after injection): 185 ± 107 % ID/g ×10^−4 | Radioactive concentration, Bone marrow ([2]; 24 hrs after injection): 32 ± 4 % ID/g ×10^−4 | Radioactive concentration, Bones ([2]; 24 hrs after injection): 711 ± 413 % ID/g ×10^−4 | Radioactive concentration in other tissues (other than prostate gland, carcass, liver) ([2]; 72 hrs after administration): less than 0.1% | Radioactive concentration, Bone marrow ([2]; 72 hrs after injection): 109 ± 40 % ID/g ×10^−4 | Radioactive concentration, Bones ([2]; 72 hrs after injection): 2343 ± 827 % ID/g ×10^−4 | Radioactive concentration, Bones ([2]; 144 hrs after injection): 1708 ± 506 % ID/g ×10^−4 | Radioactivity in major organs (brain, thymus, heart, lung, adrenal gland, spleen) and adjacent organs (bladder, rectum, testes, epididymis) ([2]; rat, in vivo): rarely detected | Administered radioactivity retained in the prostate gland [2]: over 98% | Administered radioactivity retained in the prostate gland ([2]; listed as radioisotope-chitosan complex): more than 98% | Radioactive concentration, Administration site ([3]; 25 μl administration, 30 min): 4258 ± 732.9 % ID/g | Radioactive concentration, End region of femur ([3]; 25 μl administration, 30 min): 0.05 ± 0.030 % ID/g | Radioactive concentration, Spine ([3]; 25 μl administration, 30 min): 0.02 ± 0.009 % ID/g | Radioactive concentration, Administration site ([3]; 25 μl administration, 6 hrs): 4478 ± 1212.4 % ID/g | Radioactive concentration, End region of femur ([3]; 25 μl administration, 6 hrs): 0.16 ± 0.047 % ID/g | Radioactive concentration, Kidney ([3]; 25 μl administration, 6 hrs): 0.01 ± 0.002 % ID/g | Radioactive concentration, Liver ([3]; 25 μl administration, 6 hrs): 0.04 ± 0.015 % ID/g | Radioactive concentration, Spine ([3]; 25 μl administration, 6 hrs): 0.04 ± 0.011 % ID/g | Radioactive concentration, Spleen ([3]; 25 μl administration, 6 hrs): 0.03 ± 0.007 % ID/g | Radioactive concentration, Administration site ([3]; 50 μl administration, 30 min): 3196 ± 212.5 % ID/g | Radioactive concentration, End region of femur ([3]; 50 μl administration, 30 min): 0.05 ± 0.030 % ID/g | Radioactive concentration, Kidney ([3]; 50 μl administration, 30 min): 0.02 ± 0.011 % ID/g | Radioactive concentration, Liver ([3]; 50 μl administration, 30 min): 0.01 ± 0.007 % ID/g | Radioactive concentration, Spine ([3]; 50 μl administration, 30 min): 0.02 ± 0.007 % ID/g | Radioactive concentration, Administration site ([3]; 50 μl administration, 6 hrs): 3054 ± 1873.0 % ID/g | Radioactive concentration, End region of femur ([3]; 50 μl administration, 6 hrs): 0.10 ± 0.065 % ID/g | Radioactive concentration, Kidney ([3]; 50 μl administration, 6 hrs): 0.01 ± 0.001 % ID/g | Radioactive concentration, Liver ([3]; 50 μl administration, 6 hrs): 0.03 ± 0.008 % ID/g | Radioactive concentration, Spine ([3]; 50 μl administration, 6 hrs): 0.04 ± 0.018 % ID/g | Radioactive concentration, Spleen ([3]; 50 μl administration, 6 hrs): 0.02 ± 0.014 % ID/g | Radioactivity detected in the administration site ([3]; 6 hrs after administration): over 90% | Radioactivity in major organs including the liver, spleen and kidney ([3]; 6 hrs after administration): no radioactivity was detected | Radioactivity in major organs including the liver, spleen and kidney ([3]; 6 hrs after administration, listed as radioisotope-chitosan complex): rarely detected
